Our source for the Kd values is the supplement of paper PMC6379048.

Usually Kd stands for the concentration at which binding is half-saturated. Low readings indicate a tighter complex, high ones a looser complex.

What all share (experiment): Kd (EC50 corrected by depletion factor)
In one data set the target is LRPPRC (UniProt P42704). The essentials: (§1)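 Over three biological replicates and two independent experiments, proteins captured on NHS-Sepharose beads carrying 5′-amino-C6 RNA oligos were quantified by label-free LC-MS/MS and normalised to the control. Capture lasted 30 min at 4°C and followed a 1 h pre-incubation at 4°C of HEK293-FT lysate (2.5 mg protein/well) with the same oligos in free form (0 nM to 30 μM). EC50 was taken from a four-parameter log-logistic fit, and Kd was EC50 corrected by a protein-dependent depletion factor.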

The target of a further data set is T1, MEX3B (UniProt Q6ZN04).
T1 sequence: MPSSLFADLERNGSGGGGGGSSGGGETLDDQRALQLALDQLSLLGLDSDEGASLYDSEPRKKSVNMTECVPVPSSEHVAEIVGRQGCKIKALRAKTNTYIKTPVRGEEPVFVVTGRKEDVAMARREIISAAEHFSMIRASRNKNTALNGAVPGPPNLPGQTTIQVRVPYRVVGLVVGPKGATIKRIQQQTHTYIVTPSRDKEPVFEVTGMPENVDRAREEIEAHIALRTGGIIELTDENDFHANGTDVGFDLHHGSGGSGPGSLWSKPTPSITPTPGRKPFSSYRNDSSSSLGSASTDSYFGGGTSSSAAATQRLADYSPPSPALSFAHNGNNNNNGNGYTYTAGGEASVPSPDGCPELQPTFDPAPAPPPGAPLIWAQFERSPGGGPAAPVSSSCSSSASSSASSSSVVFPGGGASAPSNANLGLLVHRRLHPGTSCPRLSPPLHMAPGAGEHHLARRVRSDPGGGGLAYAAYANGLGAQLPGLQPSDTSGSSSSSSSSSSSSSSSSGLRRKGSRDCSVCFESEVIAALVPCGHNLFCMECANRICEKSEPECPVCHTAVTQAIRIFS
The essentials: as §1

Another data set addresses T2, RBM17 (UniProt Q96I25).
T2 sequence: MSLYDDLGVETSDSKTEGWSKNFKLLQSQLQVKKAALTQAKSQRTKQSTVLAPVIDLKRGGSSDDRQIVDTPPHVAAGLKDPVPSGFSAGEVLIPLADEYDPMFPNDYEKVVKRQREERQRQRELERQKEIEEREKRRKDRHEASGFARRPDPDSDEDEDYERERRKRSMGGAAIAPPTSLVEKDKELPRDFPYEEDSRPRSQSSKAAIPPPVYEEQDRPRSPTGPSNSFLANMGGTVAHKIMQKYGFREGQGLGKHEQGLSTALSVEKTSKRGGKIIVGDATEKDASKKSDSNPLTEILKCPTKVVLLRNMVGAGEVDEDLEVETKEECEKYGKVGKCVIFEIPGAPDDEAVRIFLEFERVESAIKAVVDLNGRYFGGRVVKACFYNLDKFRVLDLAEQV
The essentials: as §1

A further data set deals with T3, SRSF3 (UniProt P84103).
T3 sequence: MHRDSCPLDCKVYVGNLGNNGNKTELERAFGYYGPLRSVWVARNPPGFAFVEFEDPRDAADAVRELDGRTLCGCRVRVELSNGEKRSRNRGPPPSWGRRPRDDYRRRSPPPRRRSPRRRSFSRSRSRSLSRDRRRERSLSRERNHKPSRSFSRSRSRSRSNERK
A digest of the protocol: as §1

For the next data set, the target named is T4, WDR33 (UniProt Q9C0J8).
T4 sequence: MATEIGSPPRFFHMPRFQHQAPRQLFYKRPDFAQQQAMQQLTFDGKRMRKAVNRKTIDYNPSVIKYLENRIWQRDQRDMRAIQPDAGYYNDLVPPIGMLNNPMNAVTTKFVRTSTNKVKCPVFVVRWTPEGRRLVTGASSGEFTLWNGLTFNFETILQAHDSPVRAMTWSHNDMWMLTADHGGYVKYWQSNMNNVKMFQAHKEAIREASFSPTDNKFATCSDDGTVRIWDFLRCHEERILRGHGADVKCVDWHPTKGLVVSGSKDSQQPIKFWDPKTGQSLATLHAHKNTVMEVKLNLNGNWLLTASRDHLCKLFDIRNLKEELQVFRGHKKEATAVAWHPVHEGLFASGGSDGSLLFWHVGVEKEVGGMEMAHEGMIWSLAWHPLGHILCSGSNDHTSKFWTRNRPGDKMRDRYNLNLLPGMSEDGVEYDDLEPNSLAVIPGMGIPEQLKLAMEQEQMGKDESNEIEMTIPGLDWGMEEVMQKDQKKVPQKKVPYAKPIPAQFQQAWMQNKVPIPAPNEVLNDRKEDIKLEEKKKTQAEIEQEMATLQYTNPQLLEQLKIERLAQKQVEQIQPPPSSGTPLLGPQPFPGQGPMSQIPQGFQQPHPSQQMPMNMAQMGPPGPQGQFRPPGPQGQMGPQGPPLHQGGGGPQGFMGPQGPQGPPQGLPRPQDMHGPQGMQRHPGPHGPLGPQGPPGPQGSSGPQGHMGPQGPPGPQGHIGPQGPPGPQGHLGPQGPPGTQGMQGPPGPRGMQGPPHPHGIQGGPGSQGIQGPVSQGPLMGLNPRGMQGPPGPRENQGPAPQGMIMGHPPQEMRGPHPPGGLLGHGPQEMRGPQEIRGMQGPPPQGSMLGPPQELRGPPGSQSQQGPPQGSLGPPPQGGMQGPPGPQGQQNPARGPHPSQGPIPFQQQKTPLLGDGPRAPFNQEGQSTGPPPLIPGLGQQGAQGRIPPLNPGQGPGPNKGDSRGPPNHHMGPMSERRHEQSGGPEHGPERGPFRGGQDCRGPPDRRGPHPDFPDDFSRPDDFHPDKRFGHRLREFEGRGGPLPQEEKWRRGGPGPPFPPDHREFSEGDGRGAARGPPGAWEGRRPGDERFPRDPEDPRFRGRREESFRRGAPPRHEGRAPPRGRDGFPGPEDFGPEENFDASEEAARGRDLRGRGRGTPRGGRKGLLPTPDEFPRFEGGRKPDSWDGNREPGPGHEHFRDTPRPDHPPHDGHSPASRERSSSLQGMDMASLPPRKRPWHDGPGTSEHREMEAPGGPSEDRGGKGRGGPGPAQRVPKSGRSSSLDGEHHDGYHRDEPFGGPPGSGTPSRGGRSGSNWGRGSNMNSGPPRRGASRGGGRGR
The essentials: as §1

A further data set concerns the target ZCCHC24 (UniProt Q8N2G6). The essentials:
as §1

Chain of ZCCHC24 (Q8N2G6 whole entry): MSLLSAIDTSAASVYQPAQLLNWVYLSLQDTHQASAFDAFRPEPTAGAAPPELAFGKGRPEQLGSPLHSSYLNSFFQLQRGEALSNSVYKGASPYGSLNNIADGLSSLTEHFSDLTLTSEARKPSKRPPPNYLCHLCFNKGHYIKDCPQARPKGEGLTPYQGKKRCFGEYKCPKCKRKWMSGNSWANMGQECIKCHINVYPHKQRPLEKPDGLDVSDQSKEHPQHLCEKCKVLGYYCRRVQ

With AAUAAA, the Kd in the data set with LRPPRC worked out at 1130 nM; with MEX3B, 327 nM; with RBM17, 940 nM; in the data set with SRSF3 it was 281 nM; with WDR33 it was 5.98 nM; with ZCCHC24, 207 nM.

On to CUGUCCU, for which the Kd in the data set with LRPPRC was 1260 nM; with SRSF3, 790 nM.

For the sequence UAUUUAU, the dissociation constant (Kd) in the data set with MEX3B turned out to be 220 nM; with RBM17, 59.9 nM; in the data set with WDR33, 338 nM; with ZCCHC24, 1910 nM.
